Source: patent US20210087268A1 (YUHAN, published 2021)

T1: mouse TIGIT (R & D Systems), ELISA antigen (mouse, UniProt P86176 29-148, limits assumed)
T1 sequence (looked up): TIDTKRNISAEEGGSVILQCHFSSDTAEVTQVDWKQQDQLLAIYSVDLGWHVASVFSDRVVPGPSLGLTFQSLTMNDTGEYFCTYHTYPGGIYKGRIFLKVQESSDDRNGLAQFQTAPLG

T2: CD96 (Sinobiological) (UniProt P40200-2 22-503, limits assumed)
T2 sequence (looked up): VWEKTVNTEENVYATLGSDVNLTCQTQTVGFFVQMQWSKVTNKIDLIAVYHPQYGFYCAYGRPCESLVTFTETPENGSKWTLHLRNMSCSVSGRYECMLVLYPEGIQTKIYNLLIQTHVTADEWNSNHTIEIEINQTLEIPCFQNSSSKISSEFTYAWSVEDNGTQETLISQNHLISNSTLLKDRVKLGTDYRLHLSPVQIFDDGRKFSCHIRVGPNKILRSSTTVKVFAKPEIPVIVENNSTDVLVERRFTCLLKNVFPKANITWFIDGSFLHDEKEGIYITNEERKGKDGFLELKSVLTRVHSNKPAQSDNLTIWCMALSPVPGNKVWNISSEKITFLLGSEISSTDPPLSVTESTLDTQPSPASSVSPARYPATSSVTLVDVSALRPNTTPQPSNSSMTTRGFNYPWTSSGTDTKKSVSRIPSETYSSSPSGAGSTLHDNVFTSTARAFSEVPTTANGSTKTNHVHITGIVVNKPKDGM

T3: CD155 (Sinobiological), ELISA antigen (UniProt P15151 21-343)
T3 sequence (looked up): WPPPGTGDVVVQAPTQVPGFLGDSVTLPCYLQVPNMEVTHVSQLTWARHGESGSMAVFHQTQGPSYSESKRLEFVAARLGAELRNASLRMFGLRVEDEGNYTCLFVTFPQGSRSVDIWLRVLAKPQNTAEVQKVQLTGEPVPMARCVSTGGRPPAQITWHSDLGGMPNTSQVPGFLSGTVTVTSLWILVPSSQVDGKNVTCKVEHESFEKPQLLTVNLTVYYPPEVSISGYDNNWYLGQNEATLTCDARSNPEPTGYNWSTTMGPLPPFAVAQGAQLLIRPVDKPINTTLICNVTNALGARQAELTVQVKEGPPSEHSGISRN

T4: CD112 (R&D Systems) (UniProt Q92692 32-360, limits assumed)
T4 sequence (looked up): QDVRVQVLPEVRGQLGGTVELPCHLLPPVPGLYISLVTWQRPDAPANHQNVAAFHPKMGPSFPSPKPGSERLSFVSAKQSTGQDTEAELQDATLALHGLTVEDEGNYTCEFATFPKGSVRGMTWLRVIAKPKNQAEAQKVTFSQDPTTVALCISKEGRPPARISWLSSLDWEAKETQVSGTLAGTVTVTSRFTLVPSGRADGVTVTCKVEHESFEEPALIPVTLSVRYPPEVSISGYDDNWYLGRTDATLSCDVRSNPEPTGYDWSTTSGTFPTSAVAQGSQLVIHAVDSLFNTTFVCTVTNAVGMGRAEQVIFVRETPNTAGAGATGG

T5: CD226 (R&D Systems) (UniProt Q15762 19-247, limits assumed)
T5 sequence (looked up): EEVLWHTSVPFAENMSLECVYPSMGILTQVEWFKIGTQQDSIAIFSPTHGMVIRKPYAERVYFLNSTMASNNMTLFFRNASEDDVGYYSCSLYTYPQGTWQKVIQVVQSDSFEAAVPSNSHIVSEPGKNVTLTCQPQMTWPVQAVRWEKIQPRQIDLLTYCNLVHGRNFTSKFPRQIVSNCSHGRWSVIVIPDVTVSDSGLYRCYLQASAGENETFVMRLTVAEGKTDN


What was measured:
[1] = target: T1, mouse TIGIT (R & D Systems), ELISA …; test: ELISA, antigen coated on the plate, 30 ng antibody per well (one amount), absorbance 450 nm
Source text: In order to determine the species cross-reactivity of the anti-TIGIT antibodies screened by phage display screening, whether or not the anti-TIGIT antibodies bound to human TIGIT (R&D Systems), mouse TIGIT (R & D Systems) and rhesus TIGIT antigens was identified by ELISA. The rhesus TIGIT antigens used herein were expressed and purified in the form of Fc-fusion by gene synthesis with reference to the Rhesus TIGIT gene sequence (NCBI accession No. XP_014985303.1). Each of three types of the TIGIT antigens diluted at a concentration of […] in PBS was added at 30 μl/well to a 96-well plate and incubated overnight at 4° C. to induce coating. Then, 30 ng of the screened antibody was bound to the TIGIT antigen, and 30 μL of a TBST (5% BSA) solution diluted at 1:3,000 was added to each well and incubated at room temperature for 1 hour. After washing three times with TBST, 30 μL of the TMB solution was added to each well to induce color development. After ceasing the reaction with 1N H₂SO₄, color development was determined at an absorbance of 450 nm. The species cross-reactivity of the screened antibodies bound to […] of antigens was identified (FIG. 1).

CD96 (Sinobiological) = target: T2, CD96 (Sinobiological); test: ELISA, antigen coated at 100 ng/well, 30 ng antibody per well (one amount), absorbance 450 nm
Method: (§1) The binding of the anti-TIGIT antibodies to TIGIT superfamilies such as CD96 (Sinobiological), CD155 (Sinobiological), CD112 (R&D Systems), CD113 (R&D Systems) and CD226 (R&D Systems) antigens was identified by ELISA in order to determine the TIGIT specificity of the anti-TIGIT antibodies screened by phage display screening. Six types of antigens including TIGIT were coated at 100 ng/well on a 96-well plate, treated with 30 ng of each screened antibody and incubated at room temperature for 1 hour. After washing three times with TBST, 30 μL of TBST (5% BSA) diluted at 1:3,000 with an anti-human Fab-HRP secondary antibody (Jackson) was added to each well and incubated at room temperature for 1 hour. After washing three times with TBST, 30 μL of the resulting TMB solution was added to each well. After ceasing the reaction with 1N H₂SO₄, color development was determined at an absorbance of 450 nm. The binding of the selected antibodies to the six antigens was identified. As a result, it can be seen that all the antibodies specifically bound only to the TIGIT antigen (FIG. 2).

[2] = target: T3, CD155 (Sinobiological), ELISA antigen; test: as above
Method: as §1

CD112 (R&D Systems) = target: T4, CD112 (R&D Systems); test: as above
Method: as §1

CD113 (R&D Systems) = CD113 (R&D Systems) (UniProt Q9NQS3 58-404, limits assumed); test: as above
Method: as §1

CD226 (R&D Systems) = target: T5, CD226 (R&D Systems); test: as above
Method: as §1

Sequence of CD113 (R&D Systems) (Q9NQS3 58-404 limits assumed): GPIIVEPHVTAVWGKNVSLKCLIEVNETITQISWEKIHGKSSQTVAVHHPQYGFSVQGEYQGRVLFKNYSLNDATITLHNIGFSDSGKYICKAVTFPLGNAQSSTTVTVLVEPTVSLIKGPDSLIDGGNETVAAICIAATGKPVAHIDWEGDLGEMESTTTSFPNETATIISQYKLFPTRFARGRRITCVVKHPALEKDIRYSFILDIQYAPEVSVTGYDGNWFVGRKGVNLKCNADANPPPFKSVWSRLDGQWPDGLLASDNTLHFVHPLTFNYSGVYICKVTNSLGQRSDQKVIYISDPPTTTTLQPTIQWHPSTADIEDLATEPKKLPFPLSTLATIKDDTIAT

binding result [1] | binding result (CD96 (Sinobiological)) | binding result [2] | binding result (CD112 (R&D Systems)) | binding result (CD113 (R&D Systems)) | binding result (CD226 (R&D Systems)) | Binder
binds | no binding (tested: 30 ng per well) | no binding (tested: 30 ng per well) | no binding (tested: 30 ng per well) | no binding (tested: 30 ng per well) | no binding (tested: 30 ng per well) | F04 (IgG1 form) (antibody, V domains shown) VH: EVQLLESGGGLVQPGGSLRLSCAASGFTFSSYYMSWVRQAPGKGLEWVSSIGSYYTYYADSVKGRFTISRDNSKNTLYLQMNSLRAEDTAVYYCARSSYSGGNGYYYYAYAFDYWGQGTLVTVSS VL: EIVLTQSPGTLSLSPGERATLSCRASQSVSSSYLAWYQQKPGQAPRLLIYGASSRATGIPDRFSGSGSGTDFTLTISRLEPEDFAVYYCQQGYHRYATFGQGTKVEIK
binds | no binding (tested: 30 ng per well) | no binding (tested: 30 ng per well) | no binding (tested: 30 ng per well) | no binding (tested: 30 ng per well) | no binding (tested: 30 ng per well) | S64 (IgG1 form) (antibody, V domains shown) VH: EVQLLESGGGLVQPGGSLRLSCAASGFTFSNYAMSWVRQAPGKGLEWVSAIYPGGGSIYYADSVKGRFTISRDNSKNTLYLQMNSLRAEDTAVYYCAKAIRTCSLSHCYYYYGMDVWGQGTLVTVSS VL: QSVLTQPPSASGTPGQRVTISCSCSSSNIGNNAVSWYQQLPGTAPKLLIYYDSNRPSGVPDRFSGSKSGTSASLAISGLRSEDEADYYCGSWDYSLSAYVFGGGTKLTVLG
